The values that follow come from patent US20250262210A1 (TRUSTEES OF COLUMBIA UNIVERSITY IN THE CITY OF NEW YORK, published 2025).

The target of one test is T1, SMPD4 (human, UniProt Q9NXE4 1-866, limits assumed).
T1 sequence (looked up): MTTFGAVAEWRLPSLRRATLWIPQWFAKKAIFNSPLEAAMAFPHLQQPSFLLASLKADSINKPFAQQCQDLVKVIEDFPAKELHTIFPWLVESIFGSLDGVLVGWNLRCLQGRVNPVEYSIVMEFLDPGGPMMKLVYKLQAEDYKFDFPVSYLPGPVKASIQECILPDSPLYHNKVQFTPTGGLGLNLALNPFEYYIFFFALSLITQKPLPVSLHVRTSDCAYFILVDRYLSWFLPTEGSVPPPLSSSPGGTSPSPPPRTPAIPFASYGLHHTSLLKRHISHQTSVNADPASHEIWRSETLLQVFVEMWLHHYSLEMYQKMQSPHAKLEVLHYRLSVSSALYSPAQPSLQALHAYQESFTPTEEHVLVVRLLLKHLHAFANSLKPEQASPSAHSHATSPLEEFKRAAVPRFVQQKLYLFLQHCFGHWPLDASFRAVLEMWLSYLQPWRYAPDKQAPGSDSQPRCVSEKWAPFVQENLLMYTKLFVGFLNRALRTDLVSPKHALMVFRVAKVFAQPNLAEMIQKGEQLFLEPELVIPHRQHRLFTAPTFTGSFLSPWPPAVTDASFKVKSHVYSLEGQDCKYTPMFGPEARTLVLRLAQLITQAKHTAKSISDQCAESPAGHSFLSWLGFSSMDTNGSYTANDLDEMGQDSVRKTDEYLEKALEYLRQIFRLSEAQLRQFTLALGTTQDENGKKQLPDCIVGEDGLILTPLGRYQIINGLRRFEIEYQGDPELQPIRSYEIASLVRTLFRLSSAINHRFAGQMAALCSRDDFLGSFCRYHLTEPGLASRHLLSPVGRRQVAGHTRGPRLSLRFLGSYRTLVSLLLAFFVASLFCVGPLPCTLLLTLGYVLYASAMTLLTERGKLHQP
The test can be described thus: IP/MS, LZTR1 R810W-FLAG, U87. The method, boiled down:
(§1)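 Gel slices were reduced with 5 mM DTT, alkylated with 11 mM IAA and digested overnight at 37° C. with trypsin. Peptides were analysed on an Orbitrap Fusion Tribrid by LC-MS/MS.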

Another test has as its target T2, LAMB3 (human, UniProt Q13751 18-1172).
T2 sequence (looked up): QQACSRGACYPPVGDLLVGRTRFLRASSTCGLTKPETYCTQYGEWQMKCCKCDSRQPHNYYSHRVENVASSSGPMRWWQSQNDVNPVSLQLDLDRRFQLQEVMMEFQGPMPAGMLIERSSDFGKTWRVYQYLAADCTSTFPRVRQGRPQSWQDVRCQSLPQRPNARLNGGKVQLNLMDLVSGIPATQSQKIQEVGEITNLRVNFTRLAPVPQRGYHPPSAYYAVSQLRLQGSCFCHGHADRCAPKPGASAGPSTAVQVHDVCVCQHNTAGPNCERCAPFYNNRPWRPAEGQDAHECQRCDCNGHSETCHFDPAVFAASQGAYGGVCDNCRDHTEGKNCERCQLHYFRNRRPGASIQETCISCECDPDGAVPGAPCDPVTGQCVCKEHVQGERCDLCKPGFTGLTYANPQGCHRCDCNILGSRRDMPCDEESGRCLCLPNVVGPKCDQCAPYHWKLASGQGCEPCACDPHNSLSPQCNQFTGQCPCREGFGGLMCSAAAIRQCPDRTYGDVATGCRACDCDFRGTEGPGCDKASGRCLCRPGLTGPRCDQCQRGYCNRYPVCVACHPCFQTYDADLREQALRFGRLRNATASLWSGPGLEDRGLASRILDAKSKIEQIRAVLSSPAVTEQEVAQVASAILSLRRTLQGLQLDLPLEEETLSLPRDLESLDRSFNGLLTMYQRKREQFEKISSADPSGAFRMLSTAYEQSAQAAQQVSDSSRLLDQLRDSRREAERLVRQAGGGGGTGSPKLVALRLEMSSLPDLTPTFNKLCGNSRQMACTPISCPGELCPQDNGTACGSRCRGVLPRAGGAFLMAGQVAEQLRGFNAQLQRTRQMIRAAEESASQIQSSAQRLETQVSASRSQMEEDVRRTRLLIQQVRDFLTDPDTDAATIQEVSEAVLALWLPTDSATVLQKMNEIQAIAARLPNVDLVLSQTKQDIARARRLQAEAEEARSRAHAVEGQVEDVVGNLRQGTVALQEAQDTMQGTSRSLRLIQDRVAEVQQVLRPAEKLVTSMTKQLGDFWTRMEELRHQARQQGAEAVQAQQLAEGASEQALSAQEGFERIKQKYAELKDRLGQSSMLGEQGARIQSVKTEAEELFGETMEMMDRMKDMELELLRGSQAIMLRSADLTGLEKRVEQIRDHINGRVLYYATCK
Put plainly: IP/MS, LZTR1 R810W-FLAG, U87. The method, boiled down:
as §1

B1: LZTR1 R810W-FLAG (other, human, UniProt Q8N653 1-840, looked up)
chain: MAGPGSTGGQIGAAALAGGARSKVAPSVDFDHSCSDSVEYLTLNFGPFETVHRWRRLPPCDEFVGARRSKHTVVAYKDAIYVFGGDNGKTMLNDLLRFDVKDCSWCRAFTTGTPPAPRYHHSAVVYGSSMFVFGGYTGDIYSNSNLKNKNDLFEYKFATGQWTEWKIEGRLPVARSAHGATVYSDKLWIFAGYDGNARLNDMWTIGLQDRELTCWEEVAQSGEIPPSCCNFPVAVCRDKMFVFSGQSGAKITNNLFQFEFKDKTWTRIPTEHLLRGSPPPPQRRYGHTMVAFDRHLYVFGGAADNTLPNELHCYDVDFQTWEVVQPSSDSEVGGAEVPERACASEEVPTLTYEERVGFKKSRDVFGLDFGTTSAKQPTQPASELPSGRLFHAAAVISDAMYIFGGTVDNNIRSGEMYRFQFSCYPKCTLHEDYGRLWESRQFCDVEFVLGEKEECVQGHVAIVTARSRWLRRKITQARERLAQKLEQEAAPVPREAPGVAAGGARPPLLHVAIREAEARPFEVLMQFLYTDKIKYPRKGHVEDVLLIMDVYKLALSFQLCRLEQLCRQYIEASVDLQNVLVVCESAARLQLSQLKEHCLNFVVKESHFNQVIMMKEFERLSSPLIVEIVRRKQQPPPRTPLDQPVDIGTSLIQDMKAYLEGAGAEFCDITLLLDGHPRPAHKAILAARSSYFEAMFRSFMPEDGQVNISIGEMVPSRQAFESMLRYIYYGEVNMPPEDSLYLFAAPYYYGFYNNRLQAYCKQNLEMNVTVQNVLQILEAADKTQALDMKRHCLHIIVHQFTKVSKLPTLWSLSQQLLLDIIDSLASHISDKQCAELGADI
notes: Stably expressed in U87 cells by lentivirus; also called LZTR1-FLAG-R810W; LZTR1 RW; not shown: FLAG tag
Consider B1, for which the binding result in the test with SMPD4 and with LAMB3 was “binds” in each case.
